Experimental data published in paper PMC6290062, “Characterization of a Novel, Cold-Adapted, and Thermostable Laccase-Like Enzyme With High Tolerance for Organic Solvents and Salt and Potent Dye Decolorization Ability, Derived From a Marine Metagenomic Library” (Frontiers in Microbiology, 2018).

Assays:
Test in all cases: purified protein
Conditions in all cases: 0.04 M Britton-Robinson buffer, pH 7.0, 60°C
[1] = system: COc1ccccc1O; type: biochemical, uncultured bacterium
[2] = system: COc1cc(C=NN=Cc2cc(OC)c(O)c(OC)c2)cc(OC)c1O
[3] = system: Oc1ccccc1O

Lac1326 (uncultured bacterium)
Km [1]: 4900 µM
kcat [1]: 1.34 s⁻¹
kcat/Km [1]: 270 M⁻¹ s⁻¹
Km [2]: 831 µM
kcat [2]: 24.1 s⁻¹
kcat/Km [2]: 29000 M⁻¹ s⁻¹
Km [3]: 507 µM
kcat/Km [3]: 28000 M⁻¹ s⁻¹
